Where a chain is given by its changes, count along the chain named. Read-outs that look alike come from different tables or passages of the source. Values belong to the binder of their own block, whether it stands above or below them.
Key:
[1] = target: T1, human CD73 on cells (H322, MDA-MB-231, HT-144, T cells, CD73-transfected HEK293T) (human, UniProt P21589 27-549); assay: flow cytometry, HEK293T cells forcibly expressing human CD73 (293T_hCD73) against untransfected 293T cells, APC channel
T1 construct: whole, on cells; One molecule for endogenous and transfected cell-surface human CD73; the cell line is named under assay or readout; also called CD73 antigen; human CD73 antigen
T1 sequence (looked up): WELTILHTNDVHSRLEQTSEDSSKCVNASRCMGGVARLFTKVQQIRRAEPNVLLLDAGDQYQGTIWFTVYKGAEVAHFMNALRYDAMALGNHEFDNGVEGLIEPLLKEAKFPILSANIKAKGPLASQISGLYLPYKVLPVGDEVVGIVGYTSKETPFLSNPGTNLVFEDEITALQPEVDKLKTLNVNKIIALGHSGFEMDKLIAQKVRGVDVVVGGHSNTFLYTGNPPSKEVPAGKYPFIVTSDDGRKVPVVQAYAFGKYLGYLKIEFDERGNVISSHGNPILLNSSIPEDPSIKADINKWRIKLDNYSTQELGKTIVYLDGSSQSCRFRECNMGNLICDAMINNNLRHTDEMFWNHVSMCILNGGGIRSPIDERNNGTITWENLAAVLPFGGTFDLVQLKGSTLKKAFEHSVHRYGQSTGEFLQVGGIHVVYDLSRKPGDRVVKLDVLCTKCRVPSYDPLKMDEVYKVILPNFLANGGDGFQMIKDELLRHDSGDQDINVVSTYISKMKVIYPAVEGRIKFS

[2] = target: T1, human CD73 on cells (H322, MDA-MB-231, …); assay: flow cytometry on H322 cells (endogenous CD73), PE channel
Procedure: Analysis of the binding activity of each of the obtained humanized antibodies 002_6_h1 to 002_6_h8 to target expressing cells was carried out by FACS analysis using endogeneously CD73 expressing cells (human lung cancer cell line H322).

[3] = target: T1, human CD73 on cells (H322, MDA-MB-231, …); assay: cell-based or functional assay
[4] = target: T1, human CD73 on cells (H322, MDA-MB-231, …); assay: cell-based or functional assay; remark: listed apart in the source
[5] = target: T1, human CD73 on cells (H322, MDA-MB-231, …); assay: cell-based or functional assay; remark: listed apart in the source
[6] = target: T1, human CD73 on cells (H322, MDA-MB-231, …); assay: cell-based or functional assay; remark: listed apart in the source
[7] = target: T1, human CD73 on cells (H322, MDA-MB-231, …); assay: cell-based or functional assay; remark: listed apart in the source

B2: 002_6_h1 (antibody, V domains shown)
VH: QVQLVQSGAEVKKPGASVKVSCKASGYTFTDSNMDWVRQAPGQRLEWMGDINPNNGGTIYNQKFKGRVTITRDTSASTAYMELSSLRSEDTAVYYCARTNWDYAMDYWGQGTLVTVSS
VL: DIQMTQSPSSLSASVGDRVTITCKASQDINSQLSWYQQKPGKAPKLLIYRANRLIDGVPSRFSGSGSGTDFTLTISSLQPEDFATYYCQQYDVFPRTFGQGTKLEIK
notes: Humanized antibody of 002_6_c; also called humanized antibody 002_6_h1
binding result [2]: binds

B8: 002_1_c antibody (antibody, V domains shown)
VH: QVQMKQSGPELVKPGASVKIPCKASGYTFTDCNMDWVKQSHGESLEWIGDINPNNGGTIYNQKFKGKVTLTIDKSSSTAYMELRSLTSEDTAVYYCARTNWDYAMDYWGQGTSVTVSS
VL: DIQMTQSPSSMYASLGERVTITCKASQDINSNLSWFQQKPGKSPKTLIYRANRLIDGVPSRFSGSGSGQDYSLTISSLEYEDMGIYYCLQYDVFPRTFGGGTKLELK
IC50 of AMP degradation suppressive function, H322 cells [6]: 0.042 µg/mL

B9: 006_m antibody (antibody, V domains shown)
VH: QVQLQQPGAELVKPGVSVKLSCKASGYTFTSYWMHWVKQRPGQGPEWIGEINPSNARTNYNENFKSKATLTVDKSSTTAYMHFSRLTSEDSAVYYCARRGTSGNYFDFWGQGTTVTVSS
VL: B8 VL with S31T, N32Y, I55V, Q69E, V93E, R96Y, K103R, L106I
IC50 of AMP degradation suppressive function (cell line of Table 7 not stated; H322 in FIG. 12) [4]: 0.008 µg/mL
IC50 of AMP degradation suppressive function, MDA-MB-231 cells [5]: 0.032 µg/mL

B11: 002_6_c antibody (antibody, V domains shown)
VH: B8 VH with C32S
VL: B8 VL with N32Q
IC50 of AMP degradation suppressive function, MDA-MB-231 cells [7]: 0.023 µg/mL
IC50 of AMP degradation suppressive function, MDA-MB-231 cells [5]: 0.04 µg/mL
IC50 of AMP degradation suppressive function, H322 cells [6]: 0.042 µg/mL
IC50 of AMP degradation suppressive function, H322 cells [3]: 0.04 µg/mL

B13: 002_5_c antibody (antibody, V domains shown)
VH: B8 VH with C32S
VL: B8 VL with N32D
IC50 of AMP degradation suppressive function, H322 cells [6]: 0.066 µg/mL

B14: 002_3_c antibody (antibody, V domains shown)
VH: B8 VH
VL: B8 VL with N32Q
IC50 of AMP degradation suppressive function, H322 cells [6]: 0.039 µg/mL

B15: 002_4_c antibody (antibody, V domains shown)
VH: B8 VH with C32S
VL: B8 VL
IC50 of AMP degradation suppressive function, H322 cells [6]: 0.038 µg/mL

B16: 002_2_c antibody (antibody, V domains shown)
VH: B8 VH
VL: B8 VL with N32D
IC50 of AMP degradation suppressive function, H322 cells [6]: 0.077 µg/mL

Further lines, results first:

binding result [1]: binds
B1: 004_h3 antibody (antibody, V domains shown)
VH: EVQLVQSGAEVKKPGESLKISCKASGYTFTGYWMNWLRQMPDKGLEWMGRIDPYDSETHYSQKFKDKVTITAHKSSSTAYLQWSSLKASDSAIYYCARSSPITTAPFDYWGQGTTVTVSS
VL: DIVMTQSPASLAVSLGERATISCRASESVDYYGFSFMNWYQQKPGQPPKLLIYAASTQGSGVPDRFSGSGSGTDFTLTISSLQAEDVAVYYCQQSKEVPYTFGGGTKVEIK
notes: Humanized antibody based on 004_m

binding result [2]: binds
B3: 002_6_h6 (antibody, V domains shown)
VH: B2 VH with L4M, V5K, Q6E, R44G, I70M, R72I, A76T, A79V
VL: B2 VL with M4V, S10F, L46T, P80Y, F83M, Q89L, Q100G, L104V
notes: Humanized antibody of 002_6_c; also called humanized antibody 002_6_h6

binding result [2]: binds
B4: 002_6_h3 (antibody, V domains shown)
VH: QVQLLQSAAEVRKPGASVKVSCKASGYTFTDSNMDWVRQAPGQGLEWMGDINPNNGGTIYNQKFKGRVTMTTDTSRRTAYMELRSLRSDDTAVYYCARTNWDYAMDYWGQGTTVTVSS
VL: B2 VL with S10F, D70E, Q100G
notes: Humanized antibody of 002_6_c; also called humanized antibody 002_6_h3

IC50 of AMP degradation suppressive function, H322 cells [3]: 0.236 µg/mL
B5: 002_6_h2 (antibody, V domains shown)
VH: B2 VH with L4M, V5K, R72I
VL: B2 VL with L11M, L46T, P80Y, F83M, Q89L

binding result [2]: binds
B6: 002_6_h5 (antibody, V domains shown)
VH: B2 VH with V5Q, Q6E, R44G, I70M, A76T, A79V
VL: B2 VL with M4V, S10F, D70E, Q100G, L104V
notes: Humanized antibody of 002_6_c; also called humanized antibody 002_6_h5

IC50 of AMP degradation suppressive function (cell line of Table 7 not stated; H322 in FIG. 12) [4]: 0.013 µg/mL
IC50 of AMP degradation suppressive function, MDA-MB-231 cells [5]: 0.032 µg/mL
B7: 004_m antibody (antibody, V domains shown)
VH: QVQLQQPGAELVRPGTSVKLSCKASGYTFTGYWMNWLKQRPDQGLEWIGRIDPYDSETHYSQKFKDKAILTVHKSSSTAYIQLNSLTSEDSAVYYCTRSSPITTAPFDYWGRGTTLTVSS
VL: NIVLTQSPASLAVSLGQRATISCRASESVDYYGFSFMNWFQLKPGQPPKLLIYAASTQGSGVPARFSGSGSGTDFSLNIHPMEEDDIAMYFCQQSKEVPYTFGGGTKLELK

IC50 of AMP degradation suppressive function (cell line of Table 7 not stated; H322 in FIG. 12) [4]: 0.012 µg/mL
IC50 of AMP degradation suppressive function, MDA-MB-231 cells [5]: 0.041 µg/mL
B10: 007_m antibody (antibody, V domains shown)
VH: QVQLQQPGAELVRPGASVKLSCKASGYTFTSYWMNWVKQRPEQGLEWIGKIDPYDSETHYNQKFKDKAILTVDKSSSTAFMQLSSLTSEDSAVYYCARIRYGTFDYWGQGTTLTVSS
VL: B8 VL with Q3V, S31N, N32Y, R53I, I55V, R61G, V93E, R96Y, K103R, L106I

IC50 of AMP degradation suppressive function (cell line of Table 7 not stated; H322 in FIG. 12) [4]: 0.006 µg/mL
IC50 of AMP degradation suppressive function, MDA-MB-231 cells [5]: 0.031 µg/mL
B12: 008_m antibody (antibody, V domains shown)
VH: QVQLKQSGAELVKPGASVKLSCKASGYTFTSYWMHWVKQRPGQGPEWIGEINPSNGRTNYNEKFKNRATLTVDKSSSTAYMQLSRLTSEDSAVYYCARRGTSGNYFDYWGQGTTLTVSS
VL: B8 VL with S31T, N32Y, I55V, Q69E, V93E, R96Y, K103R, L106I

IC50 of AMP degradation suppressive function (cell line of Table 7 not stated; H322 in FIG. 12) [4]: 0.088 µg/mL
B17: 003_m antibody (antibody, V domains shown)
VH: DVKLVESGGGLVQPGGSRKLSCAASGFTFSSFGMHWVRQAPEKGLEWVAYISSGSRTIYYADTVRGRFTISRDNSKNTLFLQLTSLRSEDTAIYYCASDFGSSSPNYFDYWGQGTTVTVSS
VL: not shown

binding result [1]: binds
B18: 008_h4 antibody (antibody, V domains shown)
VH: QVQLVQSGAEVKKPGASVKVSCKASGYTFTSYWMHWVRQRPGQGLEWMGEINPSNGRTNYNEKFKNRATITADKSSSTAYMELSSLRSEDTAVYYCARRGTSGNYFDYWGQGTLVTVSS
VL: DIQMTQSPSSLSASVGDRVTITCKASQDINTYLSWFQQKPGKAPKTLIYRANRLVDGVPSRFSGSGYGTDFTLTISSLQYEDMATYYCLQYDEFPYTFGGGTKVEIK
notes: Humanized antibody based on 008_m

Source: US20230220104A1 (BRIGHTPATH BIOTHERAPEUTICS, published 2023)
